Laboratory results published in paper PMC8276268 (Biochemistry, 2012).
Each block holds one molecule with its values, some of them ahead of it.

How the values were obtained:
[1] = target: ABCG2^Myc-ECL3* (full-length ABCG2 with ECL3 replaced by ECL1) (human) (UniProt Q9UNQ0); assay: cross-linking
[2] = target: ABCG2^Myc-L3*TM6* (full-length ABCG2 with ECL3—TM6 replaced by ECL1—TM2) (human) (UniProt Q9UNQ0); assay: cross-linking
[3] = target: ABCG2^Myc-TM5* (ABCG2 with TM5 replaced by TM1) (human) (UniProt Q9UNQ0); assay: cross-linking
[4] = target: ABCG2^Myc-TM5*L3* (full-length ABCG2 with TM5—ECL3 replaced by TM1—ECL1) (human) (UniProt Q9UNQ0); assay: cross-linking
[5] = target: ABCG2^Myc-TM6* (ABCG2 with TM6 replaced by TM2) (human) (UniProt Q9UNQ0); assay: cross-linking
[6] = target: T1, HA-tagged full-length ABCG2 (ABCG2^HA-WT) (human, UniProt Q9UNQ0 1-655, R482G); assay: co-IP
T1 sequence (looked up): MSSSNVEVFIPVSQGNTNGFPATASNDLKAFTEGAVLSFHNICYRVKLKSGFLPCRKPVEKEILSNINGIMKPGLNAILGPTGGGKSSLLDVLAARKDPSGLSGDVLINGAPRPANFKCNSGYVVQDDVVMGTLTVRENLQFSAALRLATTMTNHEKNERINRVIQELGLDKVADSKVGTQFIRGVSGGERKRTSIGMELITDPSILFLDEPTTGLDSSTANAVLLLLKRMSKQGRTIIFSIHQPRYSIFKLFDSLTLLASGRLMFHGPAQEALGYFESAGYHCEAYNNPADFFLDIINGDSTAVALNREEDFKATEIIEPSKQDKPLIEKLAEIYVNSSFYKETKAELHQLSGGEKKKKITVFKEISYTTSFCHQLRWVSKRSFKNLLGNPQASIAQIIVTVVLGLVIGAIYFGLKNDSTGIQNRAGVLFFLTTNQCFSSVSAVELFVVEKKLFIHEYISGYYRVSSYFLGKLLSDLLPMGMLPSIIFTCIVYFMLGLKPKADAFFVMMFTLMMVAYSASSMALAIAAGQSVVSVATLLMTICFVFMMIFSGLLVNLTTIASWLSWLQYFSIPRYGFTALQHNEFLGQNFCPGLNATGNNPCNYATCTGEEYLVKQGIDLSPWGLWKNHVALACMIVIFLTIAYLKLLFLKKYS

percent of the protein cross-linked as dimer [1]: 26%
percent of the protein cross-linked as pentamer [1]: 43%
percent of the protein cross-linked as trimer [1]: 11%
Molecule: ABCG2^Myc-ECL3* (full-length ABCG2 with ECL3 replaced by ECL1) (from UniProt Q9UNQ0 1-655) (natural protein)

percent of the protein cross-linked as dimer [2]: 11%
percent of the protein cross-linked as hexamer [2]: 89%
Molecule: ABCG2^Myc-L3*TM6* (full-length ABCG2 with ECL3—TM6 replaced by ECL1—TM2) (from UniProt Q9UNQ0 1-655) (natural protein)

percent of the protein cross-linked as dimer [3]: 31%
percent of the protein cross-linked as tetramer [3]: 10%
percent of the protein cross-linked as trimer [3]: 32%
Molecule: ABCG2^Myc-TM5* (ABCG2 with TM5 replaced by TM1) (from UniProt Q9UNQ0 1-655) (natural protein)

percent of the protein cross-linked as dimer [4]: 29%
percent of the protein cross-linked as pentamer [4]: 51%
percent of the protein cross-linked as trimer [4]: 8%
Molecule: ABCG2^Myc-TM5*L3* (full-length ABCG2 with TM5—ECL3 replaced by TM1—ECL1) (from UniProt Q9UNQ0 1-655) (natural protein)

percent of the protein cross-linked as dimer [5]: 18%
percent of the protein cross-linked as tetramer [5]: 49%
percent of the protein cross-linked as trimer [5]: 29%
Molecule: ABCG2^Myc-TM6* (ABCG2 with TM6 replaced by TM2) (from UniProt Q9UNQ0 1-655) (natural protein)

Co-IP with WT, relative to the wild-type construct [6]: 100%
B1: Myc-tagged wild-type ABCG2 (ABCG2^Myc-WT) (natural protein, human, UniProt Q9UNQ0 1-655, looked up)
chain: T1 sequence (looked up)
